Sequences and labels used below:
T1: rat amylin receptor (rat calcitonin receptor + rat RAMP 3) (rat, UniProt P32214 25-516; Q9JJ73 23-147)
T1 construct: whole, on cells; Membranes prepared from transiently transfected BHK tk'ts 13 cells; also called rAmylin-R; rat amylin 3(a) receptor
T1 sequence (looked up) 1: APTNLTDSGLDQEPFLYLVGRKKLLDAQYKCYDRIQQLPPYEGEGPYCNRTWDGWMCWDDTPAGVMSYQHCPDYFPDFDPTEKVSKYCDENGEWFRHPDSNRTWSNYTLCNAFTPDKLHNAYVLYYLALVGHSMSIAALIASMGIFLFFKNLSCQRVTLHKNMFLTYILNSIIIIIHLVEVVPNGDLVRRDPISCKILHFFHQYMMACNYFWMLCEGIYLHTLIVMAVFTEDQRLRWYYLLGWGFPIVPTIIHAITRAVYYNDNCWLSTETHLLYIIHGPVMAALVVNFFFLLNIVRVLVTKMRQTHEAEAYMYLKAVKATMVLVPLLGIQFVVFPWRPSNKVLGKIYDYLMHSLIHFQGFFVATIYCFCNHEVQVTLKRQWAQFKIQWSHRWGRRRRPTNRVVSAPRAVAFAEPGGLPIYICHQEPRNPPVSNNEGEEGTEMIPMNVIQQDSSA
T1 sequence (looked up) 2: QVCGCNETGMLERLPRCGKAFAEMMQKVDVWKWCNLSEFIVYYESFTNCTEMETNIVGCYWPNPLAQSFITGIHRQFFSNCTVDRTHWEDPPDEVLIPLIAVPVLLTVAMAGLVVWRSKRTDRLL

T2: rat calcitonin receptor (rat, UniProt P32214 25-516)
T2 construct: whole, on cells; Membranes prepared from transiently transfected BHK tk'ts 13 cells; also called rCTR; rat calcitonin (a) receptor
T2 sequence (looked up): T1 sequence (looked up) 1

T3: human calcitonin receptor (human, UniProt P30988 25-474)
T3 construct: whole, on cells; Membranes from stably transfected BHK cells; also called hCTR; hCT
T3 sequence (looked up): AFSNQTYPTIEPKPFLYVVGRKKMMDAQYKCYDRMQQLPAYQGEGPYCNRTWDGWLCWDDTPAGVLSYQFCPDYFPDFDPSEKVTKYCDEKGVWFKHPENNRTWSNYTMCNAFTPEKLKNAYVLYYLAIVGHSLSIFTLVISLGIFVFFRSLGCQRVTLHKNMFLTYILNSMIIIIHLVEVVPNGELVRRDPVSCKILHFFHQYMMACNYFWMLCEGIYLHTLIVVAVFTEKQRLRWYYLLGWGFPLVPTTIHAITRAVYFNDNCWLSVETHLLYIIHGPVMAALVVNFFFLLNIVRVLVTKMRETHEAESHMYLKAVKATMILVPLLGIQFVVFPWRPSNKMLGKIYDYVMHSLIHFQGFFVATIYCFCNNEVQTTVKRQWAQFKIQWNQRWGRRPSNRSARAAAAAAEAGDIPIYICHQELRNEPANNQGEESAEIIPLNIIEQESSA

B1: N^ε1-[(4S)-4-carboxy-4-(19-carboxynonadecanoylamino)butanoyl]-[His14,Arg17,Pro21,Pro27,Pro31,Pro34]-h-amylin (peptide)
peptide: K([γGlu-C20 diacid])CNTATCATQRLAHFLRHSSPNFGAIPSSTPVGPNTY-NH2
modifications: disulfide 2-7; N-terminus assumed
SMILES: CC[C@H](C)[C@H](NC(=O)[C@H](C)NC(=O)CNC(=O)[C@H](Cc1ccccc1)NC(=O)[C@H](CC(N)=O)NC(=O)[C@@H]1CCCN1C(=O)[C@H](CO)NC(=O)[C@H](CO)NC(=O)[C@H](Cc1c[nH]cn1)NC(=O)[C@H](CCCNC(=N)N)NC(=O)[C@H](CC(C)C)NC(=O)[C@H](Cc1ccccc1)NC(=O)[C@H](Cc1c[nH]cn1)NC(=O)[C@H](C)NC(=O)[C@H](CC(C)C)NC(=O)[C@H](CCCNC(=N)N)NC(=O)[C@H](CCC(N)=O)NC(=O)[C@@H](NC(=O)[C@H](C)NC(=O)[C@@H]1CSSC[C@H](NC(=O)[C@@H](N)CCCCNC(=O)CC[C@H](NC(=O)CCCCCCCCCCCCCCCCCCC(=O)O)C(=O)O)C(=O)N[C@@H](CC(N)=O)C(=O)N[C@@H]([C@@H](C)O)C(=O)N[C@@H](C)C(=O)N[C@@H]([C@@H](C)O)C(=O)N1)[C@@H](C)O)C(=O)N1CCC[C@H]1C(=O)N[C@@H](CO)C(=O)N[C@@H](CO)C(=O)N[C@H](C(=O)N1CCC[C@H]1C(=O)N[C@H](C(=O)NCC(=O)N1CCC[C@H]1C(=O)N[C@@H](CC(N)=O)C(=O)N[C@H](C(=O)N[C@@H](Cc1ccc(O)cc1)C(N)=O)[C@@H](C)O)C(C)C)[C@@H](C)O
B2: N^ε1-[(4S)-4-carboxy-4-[[(4S)-4-carboxy-4-(19-carboxynonadecanoylamino)butanoyl]amino]butanoyl]-[Glu14,Arg17,Pro21,Pro27,Arg34,Glu35]-h-amylin (peptide)
peptide: K([γGlu-γGlu-C20 diacid])CNTATCATQRLAEFLRHSSPNFGAIPSSTNVGRETY-NH2
modifications: disulfide 2-7; N-terminus assumed
SMILES: CC[C@H](C)[C@H](NC(=O)[C@H](C)NC(=O)CNC(=O)[C@H](Cc1ccccc1)NC(=O)[C@H](CC(N)=O)NC(=O)[C@@H]1CCCN1C(=O)[C@H](CO)NC(=O)[C@H](CO)NC(=O)[C@H](Cc1c[nH]cn1)NC(=O)[C@H](CCCNC(=N)N)NC(=O)[C@H](CC(C)C)NC(=O)[C@H](Cc1ccccc1)NC(=O)[C@H](CCC(=O)O)NC(=O)[C@H](C)NC(=O)[C@H](CC(C)C)NC(=O)[C@H](CCCNC(=N)N)NC(=O)[C@H](CCC(N)=O)NC(=O)[C@@H](NC(=O)[C@H](C)NC(=O)[C@@H]1CSSC[C@H](NC(=O)[C@@H](N)CCCCNC(=O)CC[C@H](NC(=O)CC[C@H](NC(=O)CCCCCCCCCCCCCCCCCCC(=O)O)C(=O)O)C(=O)O)C(=O)N[C@@H](CC(N)=O)C(=O)N[C@@H]([C@@H](C)O)C(=O)N[C@@H](C)C(=O)N[C@@H]([C@@H](C)O)C(=O)N1)[C@@H](C)O)C(=O)N1CCC[C@H]1C(=O)N[C@@H](CO)C(=O)N[C@@H](CO)C(=O)N[C@H](C(=O)N[C@@H](CC(N)=O)C(=O)N[C@H](C(=O)NCC(=O)N[C@@H](CCCNC(=N)N)C(=O)N[C@@H](CCC(=O)O)C(=O)N[C@H](C(=O)N[C@@H](Cc1ccc(O)cc1)C(N)=O)[C@@H](C)O)C(C)C)[C@@H](C)O
B3: N^ε1-[(4S)-4-carboxy-4-[[(4S)-4-carboxy-4-(19-carboxynonadecanoylamino)butanoyl]amino]butanoyl]-[Arg17,Pro21,Pro27,Pro31,Pro34,Arg35]-h-amylin (peptide)
peptide: K([γGlu-γGlu-C20 diacid])CNTATCATQRLANFLRHSSPNFGAIPSSTPVGPRTY-NH2
modifications: disulfide 2-7; N-terminus assumed
SMILES: CC[C@H](C)[C@H](NC(=O)[C@H](C)NC(=O)CNC(=O)[C@H](Cc1ccccc1)NC(=O)[C@H](CC(N)=O)NC(=O)[C@@H]1CCCN1C(=O)[C@H](CO)NC(=O)[C@H](CO)NC(=O)[C@H](Cc1c[nH]cn1)NC(=O)[C@H](CCCNC(=N)N)NC(=O)[C@H](CC(C)C)NC(=O)[C@H](Cc1ccccc1)NC(=O)[C@H](CC(N)=O)NC(=O)[C@H](C)NC(=O)[C@H](CC(C)C)NC(=O)[C@H](CCCNC(=N)N)NC(=O)[C@H](CCC(N)=O)NC(=O)[C@@H](NC(=O)[C@H](C)NC(=O)[C@@H]1CSSC[C@H](NC(=O)[C@@H](N)CCCCNC(=O)CC[C@H](NC(=O)CC[C@H](NC(=O)CCCCCCCCCCCCCCCCCCC(=O)O)C(=O)O)C(=O)O)C(=O)N[C@@H](CC(N)=O)C(=O)N[C@@H]([C@@H](C)O)C(=O)N[C@@H](C)C(=O)N[C@@H]([C@@H](C)O)C(=O)N1)[C@@H](C)O)C(=O)N1CCC[C@H]1C(=O)N[C@@H](CO)C(=O)N[C@@H](CO)C(=O)N[C@H](C(=O)N1CCC[C@H]1C(=O)N[C@H](C(=O)NCC(=O)N1CCC[C@H]1C(=O)N[C@@H](CCCNC(=N)N)C(=O)N[C@H](C(=O)N[C@@H](Cc1ccc(O)cc1)C(N)=O)[C@@H](C)O)C(C)C)[C@@H](C)O
B4: N^ε1-[(4S)-4-carboxy-4-[[(4S)-4-carboxy-4-(19-carboxynonadecanoylamino)butanoyl]amino]butanoyl]-[Glu14,Arg17,Pro21,Pro27,His34,Glu35]-h-amylin (peptide)
peptide: K([γGlu-γGlu-C20 diacid])CNTATCATQRLAEFLRHSSPNFGAIPSSTNVGHETY-NH2
modifications: disulfide 2-7; N-terminus assumed
SMILES: CC[C@H](C)[C@H](NC(=O)[C@H](C)NC(=O)CNC(=O)[C@H](Cc1ccccc1)NC(=O)[C@H](CC(N)=O)NC(=O)[C@@H]1CCCN1C(=O)[C@H](CO)NC(=O)[C@H](CO)NC(=O)[C@H](Cc1c[nH]cn1)NC(=O)[C@H](CCCNC(=N)N)NC(=O)[C@H](CC(C)C)NC(=O)[C@H](Cc1ccccc1)NC(=O)[C@H](CCC(=O)O)NC(=O)[C@H](C)NC(=O)[C@H](CC(C)C)NC(=O)[C@H](CCCNC(=N)N)NC(=O)[C@H](CCC(N)=O)NC(=O)[C@@H](NC(=O)[C@H](C)NC(=O)[C@@H]1CSSC[C@H](NC(=O)[C@@H](N)CCCCNC(=O)CC[C@H](NC(=O)CC[C@H](NC(=O)CCCCCCCCCCCCCCCCCCC(=O)O)C(=O)O)C(=O)O)C(=O)N[C@@H](CC(N)=O)C(=O)N[C@@H]([C@@H](C)O)C(=O)N[C@@H](C)C(=O)N[C@@H]([C@@H](C)O)C(=O)N1)[C@@H](C)O)C(=O)N1CCC[C@H]1C(=O)N[C@@H](CO)C(=O)N[C@@H](CO)C(=O)N[C@H](C(=O)N[C@@H](CC(N)=O)C(=O)N[C@H](C(=O)NCC(=O)N[C@@H](Cc1c[nH]cn1)C(=O)N[C@@H](CCC(=O)O)C(=O)N[C@H](C(=O)N[C@@H](Cc1ccc(O)cc1)C(N)=O)[C@@H](C)O)C(C)C)[C@@H](C)O

Numbered stars: 1 amine (or outer) side, 2 acyl side, 3 side chain; on linkers, the order of the positions; unused ones are H or OH. Bridge positions count the residues as written; N and C are the ends. Side chains are listed from the residue outwards. Ends that are not written are not given here. * marks the point of attachment. C20 diacid = O=C(O)CCCCCCCCCCCCCCCCCCC(=O)*; γGlu = O=C(O)[C@H](CCC(=O)[*:2])N[*:1]

In one assay the target is T1, rat amylin receptor (rat calcitonin …). Nature of the assay: SPA competition vs 125I-rat amylin, membranes (Assay VI).
As usually defined, the IC50 is the concentration that inhibits the measured activity by half. B1: the concentration for half-maximal inhibition (IC50) came out at 0.125 nM.

As for K([γGlu-γGlu-C20 diacid])CNTATCATQRLADFLRHSSPNFGAIPSSTNVGPRTY-NH2 (disulfide 2-7, also called compound 130), the IC50 was 0.93 nM.

B2: the concentration for half-maximal inhibition (IC50) turned out to be 2.86 nM.

Take B3: the IC50 turned out to be 0.381 nM.

For B4, the IC50 was determined as 3.14 nM.

On to K([γGlu-γGlu-C20 diacid])CNTATCATQRLADFLRHSSPNFGAIPSSTNVGPETY-NH2 (disulfide 2-7), for which the IC50 was 0.324 nM.

In a further assay the target is T2, rat calcitonin receptor. Nature of the assay: SPA competition vs 125I-calcitonin, membranes (Assay VIII).
As for B1, the half-maximal inhibitory concentration (IC50) turned out to be 9.05 nM.

As to K([γGlu-γGlu-C20 diacid])CNTATCATQRLADFLRHSSPNFGAIPSSTNVGPRTY-NH2 (disulfide 2-7, also called compound 130), the IC50 was 223 nM.

Turning to B2, the 50% inhibitory concentration (IC50) was 452 nM.

Turning to B3, the IC50 came to 52.4 nM.

B4: the IC50 amounted to 498 nM.

For the molecule K([γGlu-γGlu-C20 diacid])CNTATCATQRLADFLRHSSPNFGAIPSSTNVGPETY-NH2 (disulfide 2-7), the IC50 stood at 31.9 nM.

Another assay concerns the target T3, human calcitonin receptor. Nature of the assay: ratio of IC50 on human calcitonin receptor to IC50 on human amylin receptor. The method, boiled down:
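Membranes (35 ng/μL final) + SPA beads, 50 mM Hepes pH 7.4 buffer with 1 mM CaCl2, 5 mM MgCl₂, 0.1% OA, 0.02% Tween20; 120 min, 25° C, shaking; centrifuged, counted; IC₅₀ by one-site binding competition.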
Consider B1, for which the “Ratio hCT/hAmylin binding” value is 24.8.

For K([γGlu-γGlu-C20 diacid])CNTATCATQRLADFLRHSSPNFGAIPSSTNVGPRTY-NH2 (disulfide 2-7, also called compound 130), the “Ratio hCT/hAmylin binding” value turned out to be 280.

As for B2, the “Ratio hCT/hAmylin binding” value turned out to be 14.7.

For the molecule B3, the “Ratio hCT/hAmylin binding” value is 48.6.

In the case of B4, the “Ratio hCT/hAmylin binding” value turned out to be 29.1.

As for K([γGlu-γGlu-C20 diacid])CNTATCATQRLADFLRHSSPNFGAIPSSTNVGPETY-NH2 (disulfide 2-7), the “Ratio hCT/hAmylin binding” value stood at 49.8.

A further assay has as its target T2, rat calcitonin receptor. Nature of the assay: ratio of IC50 on rat calcitonin receptor to IC50 on rat amylin receptor.
Take B1: the “Ratio rCT/rAmylin binding” value worked out at 72.4.

In the case of K([γGlu-γGlu-C20 diacid])CNTATCATQRLADFLRHSSPNFGAIPSSTNVGPRTY-NH2 (disulfide 2-7, also called compound 130), the “Ratio rCT/rAmylin binding” value was determined as 240.

Turning to B2, the “Ratio rCT/rAmylin binding” value amounted to 158.

Take B3: the “Ratio rCT/rAmylin binding” value turned out to be 137.

Consider B4, for which the “Ratio rCT/rAmylin binding” value is 159.

Consider K([γGlu-γGlu-C20 diacid])CNTATCATQRLADFLRHSSPNFGAIPSSTNVGPETY-NH2 (disulfide 2-7), for which the “Ratio rCT/rAmylin binding” value was 98.5.

The record behind these values is patent US20140087995A1 (published 2014).
